Earlier results as cited in paper PMC7221782.
“And” between values parts separate entries of the source, which are not always exact repeats. Equal entries are not always repeated.

Molecular target: Gal4 (Saccharomyces cerevisiae) (UniProt P04386)

Q: With Gal4 (from UniProt P04386) as the substance, how does the Kd read?
A: The Kd was 8.5 µM and 20 µM.
